Laboratory results as given in paper PMC10696041 (2023).
Values belong to the binder of their own block, whether it stands above or below them.

Assays:
[1] = molecular target: T1, bone morphogenetic protein-1 (human, UniProt P13497-2 121-730); assay: SPR; steady-state fit
T1 chain: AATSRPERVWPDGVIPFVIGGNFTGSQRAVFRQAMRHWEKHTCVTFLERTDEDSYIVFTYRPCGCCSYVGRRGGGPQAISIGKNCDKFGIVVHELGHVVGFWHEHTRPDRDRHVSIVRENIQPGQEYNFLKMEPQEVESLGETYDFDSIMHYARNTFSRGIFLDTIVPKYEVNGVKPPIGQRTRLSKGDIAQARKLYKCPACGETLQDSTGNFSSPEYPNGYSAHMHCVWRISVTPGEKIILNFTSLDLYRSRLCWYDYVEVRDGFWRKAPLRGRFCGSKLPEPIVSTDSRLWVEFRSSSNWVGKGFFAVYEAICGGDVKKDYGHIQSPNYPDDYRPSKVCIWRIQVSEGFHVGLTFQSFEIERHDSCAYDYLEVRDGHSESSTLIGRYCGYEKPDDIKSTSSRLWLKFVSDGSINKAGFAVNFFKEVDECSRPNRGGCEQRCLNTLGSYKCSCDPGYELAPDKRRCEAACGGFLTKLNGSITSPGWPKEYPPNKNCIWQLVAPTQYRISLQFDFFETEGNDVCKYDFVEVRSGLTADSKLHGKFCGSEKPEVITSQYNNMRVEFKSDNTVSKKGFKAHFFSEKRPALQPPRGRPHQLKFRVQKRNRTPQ

[2] = molecular target: T1, bone morphogenetic protein-1; assay: SPR; heterogeneous ligand model, KD1 (Rmax1 14%)
[3] = molecular target: T1, bone morphogenetic protein-1; assay: SPR; heterogeneous ligand model, second site kd2
[4] = molecular target: T1, bone morphogenetic protein-1; assay: SPR; heterogeneous ligand model, second site KD2 (Rmax2 86%)
[5] = molecular target: T1, bone morphogenetic protein-1; assay: SPR; heterogeneous ligand model, kd1
[6] = molecular target: T2, procollagen C-proteinase enhancer-2 with N-terminal 6His-tag (human, UniProt Q9UKZ9 24-415); assay: SPR; heterogeneous ligand model, KD1 (Rmax1 42%)
T2 chain: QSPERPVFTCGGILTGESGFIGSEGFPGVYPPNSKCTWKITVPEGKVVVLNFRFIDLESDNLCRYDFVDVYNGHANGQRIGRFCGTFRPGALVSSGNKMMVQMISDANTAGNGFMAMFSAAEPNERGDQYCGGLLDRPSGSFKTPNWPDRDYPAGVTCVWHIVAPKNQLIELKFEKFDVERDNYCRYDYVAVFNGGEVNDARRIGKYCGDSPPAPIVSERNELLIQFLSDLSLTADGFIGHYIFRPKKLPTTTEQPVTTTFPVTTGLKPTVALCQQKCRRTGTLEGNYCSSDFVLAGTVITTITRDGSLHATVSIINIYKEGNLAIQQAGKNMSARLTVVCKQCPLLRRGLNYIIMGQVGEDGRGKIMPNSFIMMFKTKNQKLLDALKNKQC

[7] = molecular target: T2, procollagen C-proteinase enhancer-2 …; assay: SPR; steady-state fit
[8] = molecular target: T2, procollagen C-proteinase enhancer-2 …; assay: SPR; heterogeneous ligand model, second site kd2
[9] = molecular target: T2, procollagen C-proteinase enhancer-2 …; assay: SPR; heterogeneous ligand model, second site KD2 (Rmax2 58%)
[10] = molecular target: T2, procollagen C-proteinase enhancer-2 …; assay: SPR; heterogeneous ligand model, kd1

Kd [1]: 52 nM | Kd [2]: 6.29 nM | koff [3]: 0.198 s⁻¹ | Kd [4]: 26.6 nM | koff [5]: 0.005 s⁻¹
B1: CUB2NTR region of PCPE-2 (domain or fragment)
chain: CGGLLDRPSGSFKTPNWPDRDYPAGVTCVWHIVAPKNQLIELKFEKFDVERDNYCRYDYVAVFNGGEVNDARRIGKYCGDSPPAPIVSERNELLIQFLSDLSLTADGFIGHYIFRPKKLPTTTEQPVTTTFPVTTGLKPTVALCQQKCRRTGTLEGNYCSSDFVLAGTVITTITRDGSLHATVSIINIYKEGNLAIQQAGKNMSARLTVVCKQCPLLRRGLNYIIMGQVGEDGRGKIMPNSFIMMFKTKNQKLLDALKNKQC

Kd [6]: 1.84 nM | Kd [7]: 24 nM | koff [8]: 0.03 s⁻¹ | Kd [9]: 66 nM | koff [10]: 0.0024 s⁻¹
B2: BMP-1[catCUB1CUB2] (domain or fragment)
chain: AATSRPERVWPDGVIPFVIGGNFTGSQRAVFRQAMRHWEKHTCVTFLERTDEDSYIVFTYRPCGCCSYVGRRGGGPQAISIGKNCDKFGIVVHELGHVVGFWHEHTRPDRDRHVSIVRENIQPGQEYNFLKMEPQEVESLGETYDFDSIMHYARNTFSRGIFLDTIVPKYEVNGVKPPIGQRTRLSKGDIAQARKLYKCPACGETLQDSTGNFSSPEYPNGYSAHMHCVWRISVTPGEKIILNFTSLDLYRSRLCWYDYVEVRDGFWRKAPLRGRFCGSKLPEPIVSTDSRLWVEFRSSSNWVGKGFFAVYEAICGGDVKKDYGHIQSPNYPDDYRPSKVCIWRIQVSEGFHVGLTFQSFEIERHDSCAYDYLEVRDGHSESSTLIGRYCGYEKPDDIKSTSSRLWLKFVSDGSINKAGFAVNFFK
